Assay results from publication PMC12630144.

B1: WT-box consensus probe (dsDNA)
DNA 1: ATCGTCTAGATCGAAAAAGTCAACCGATGCTAGTCGTCA
DNA 2: TGACGACTAGCATCGGTTGACTTTTTCGATCTAGACGAT
B2: WK-box consensus probe (dsDNA)
DNA 1: ATCGTCTAGATCGATTTTTCCACACGATGCTAGTCGTCA
DNA 2: TGACGACTAGCATCGTGTGGAAAAATCGATCTAGACGAT

Biological target: WRKY50 (Arabidopsis thaliana, UniProt Q8VWQ5 1-173)
Assay: EMSA

Chain of WRKY50 (Q8VWQ5 whole entry): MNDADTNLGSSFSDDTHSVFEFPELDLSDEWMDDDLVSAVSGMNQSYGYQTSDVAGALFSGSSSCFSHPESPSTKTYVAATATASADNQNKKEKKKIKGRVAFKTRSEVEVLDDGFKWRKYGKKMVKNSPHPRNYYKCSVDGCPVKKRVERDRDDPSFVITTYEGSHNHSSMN

Binder | binding result
B1 | binds
B2 | binds
